The source of these data is patent publication US11999771B2, “IL-7Rαγc ligand immunoglobulin fusion proteins” (MEDIKINE, INC., priority 2022, dated 2024).

A short description of the data set: Pharmacokinetics of the IL-7Rαγc IgG2-Fc fusion protein in non-human primates (serum level quantified by TF-1-7Rα STAT5 phosphorylation bioassay). The format is in vivo. As to conditions: single dose of 1 mg/kg. The procedure:
A pharmacokinetic study of an IL-7Rαγc IgG2-Fc fusion protein was performed in non-human primates. The IL-7Rαγc IgG2-Fc fusion having SEQ ID NO: 45 was administered intravenously (IV), subcutaneously (SC), or intramuscularly (IM) with a single dose of 1 mg/kg into each non-human primate (n=10). Blood samples were collected at times post-dose into serum separator vials. Samples were centrifuged at 10,000× g for 5 min at 4° C. followed by transferring the serum to a new tube. Samples were frozen and stored at −80° C. prior to testing.
The TF-1-7Rα STAT5 phosphorylation bioassay was used to quantity the amount of the IL-7Rαγc IgG2-Fc fusion in each of the serum samples. Three-fold serial dilutions of each serum sample or a compound reference standard in starvation media were added to the cells and incubated for 30 mins with the cells. Cells extracts were prepared and the quantity of phosphorylated STAT5 was determined as described in Example 3. The IL-7Rαγc IgG2-Fc fusion protein concentration in each serum sample was calculated using a standard curve generated from the reference standard.

B1: hu-IgG2-Fc-(GS)10GG-IL-7Raγc (protein)
chain: ERKSSVECPPCPAPPVAGPSVFLFPPKPKDTLMISRTPEVTCVVVDVSHEDPEVQFNWYVDGVEVHNAKTKPREEQFNSTFRVVSVLTVVHQDWLNGKEYKCKVSNKGLPAPIEKTISKTKGQPREPQVYTLPPSREEMTKNQVSLTCLVKGFYPSDIAVEWESNGQPENNYKTTPPMLDSDGSFFLYSKLTVDKSRWQQGNVFSCSVMHEALHNHYTQKSLSLSPGAGSGSGSGSGSGSGSGSGSGSGGGWGIPWCTLDPGSLQCAWLGKHGGGGSGGVVCQDWEGVELCWQGG
notes: IL-7R agonist
Regarding B1, under “intramuscular vs intravenous”, the “bioavailability % F for IM administration” value worked out at 117%. Moreover, for the setting “subcutaneous vs intravenous”, the “bioavailability % F for SC administration” value is recorded as 112%.
